# Source: publication PMC7810697, “Sarcolipin alters SERCA1a interdomain communication by impairing binding of both calcium and ATP” (Scientific Reports, 2021)
# “And” between values parts separate entries of the source, which are not always exact repeats. Equal entries are not always repeated. Ends that are not written are not given here. * marks the point of attachment. Palmitoyl = CCCCCCCCCCCCCCCC(=O)*
# Assays:
# [1] = target: T1, recombinant SERCA1a (recS1a) (Oryctolagus cuniculus, UniProt P04191); experiment: Effect of SLN:SERCA1a stoichiometry on phosphorylated intermediate, recS1a; format: biochemical, rabbit (expressed in S. cerevisiae); conditions: for EPmax (stoichiometry series), recS1a / maximum decrease of the EP level, recS1a (discussion): Fig. 4G; for SLN:SERCA1a ratio for half-inhibition, recS1a (Fig. 4H): phosphoenzyme after 20 s, dose-response with variable slope; for SLN:SERCA1a ratio for half-inhibition, recS1a (Fig. 4H) / amplitude of the inhibition of phosphoenzyme level, recS1a: mean of three independent experiments; for amplitude of the inhibition of phosphoenzyme level, recS1a: recS1a without SLN = 100%
# T1 construct: BAD (biotin acceptor domain) (C, cleaved yes); made in house; host or cells: Saccharomyces cerevisiae
# T1 sequence (P04191 1-994 isoform P04191-2): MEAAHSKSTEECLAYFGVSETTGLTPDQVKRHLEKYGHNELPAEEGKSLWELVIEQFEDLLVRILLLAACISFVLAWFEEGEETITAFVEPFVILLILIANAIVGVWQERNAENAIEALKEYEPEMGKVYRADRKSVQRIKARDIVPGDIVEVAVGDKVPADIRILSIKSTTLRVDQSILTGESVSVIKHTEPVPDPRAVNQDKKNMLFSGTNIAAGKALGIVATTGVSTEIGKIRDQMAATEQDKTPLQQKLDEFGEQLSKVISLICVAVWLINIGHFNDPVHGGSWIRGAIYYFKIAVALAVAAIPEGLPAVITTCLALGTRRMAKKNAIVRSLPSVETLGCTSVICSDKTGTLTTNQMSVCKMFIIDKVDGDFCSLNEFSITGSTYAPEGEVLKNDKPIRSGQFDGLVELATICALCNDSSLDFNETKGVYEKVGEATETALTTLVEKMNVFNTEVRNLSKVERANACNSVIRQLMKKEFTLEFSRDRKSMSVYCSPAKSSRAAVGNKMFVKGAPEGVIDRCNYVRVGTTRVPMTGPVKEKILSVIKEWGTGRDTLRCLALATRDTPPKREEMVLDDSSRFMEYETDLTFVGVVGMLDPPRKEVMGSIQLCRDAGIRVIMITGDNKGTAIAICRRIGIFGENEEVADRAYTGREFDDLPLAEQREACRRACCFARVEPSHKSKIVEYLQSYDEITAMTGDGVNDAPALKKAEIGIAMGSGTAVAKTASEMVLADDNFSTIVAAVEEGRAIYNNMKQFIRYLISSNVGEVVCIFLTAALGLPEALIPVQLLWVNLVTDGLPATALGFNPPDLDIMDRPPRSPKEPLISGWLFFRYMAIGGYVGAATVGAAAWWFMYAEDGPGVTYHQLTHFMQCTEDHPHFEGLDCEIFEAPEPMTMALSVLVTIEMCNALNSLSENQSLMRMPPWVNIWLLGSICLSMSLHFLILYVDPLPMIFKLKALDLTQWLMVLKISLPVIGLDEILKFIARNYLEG
# Method: (§1) Transient formation of the phosphoenzyme intermediate was measured after incubation with [γ^32P]ATP followed by acid quenching, and filtration. For most experiments, 50 µL of enzyme at 10 µg/mL in a buffer containing 50 mM Tes-Tris pH7.5, 1 mM KCl, 5 mM MgCl2, 20% glycerol (w/w) and 0.5 mg/mL DDM, supplemented or not with SLN, was stored on ice. Concentrations of EGTA and calcium are specified in figure legends in order to reach the appropriate [Ca^2+]free and therefore the desired starting state for the ATPase. For kinetics of phosphorylation, we initiate reaction by addition of 2 µM [γ^32P]ATP (5 mCi/µmole), and calcium at 100 µM when specified. Reaction was quenched by addition of 2 mL of cold quenching medium (500 mM TCA + 30 mM H3P0_4) under vigorous mixing, and immediately stored on ice for 20–30 min to improve precipitation, a period of time critical for retention of the precipitate on the filter in presence of detergent. This was followed by filtration on GS filters (Millipore, Saint Quentin-Fallavier, France) and careful rinsing of the filters with diluted quenching medium (50 mM TCA + 3 mM H3P0_4). The amount of radioactivity bound to the filter was estimated by liquid scintillation counting (Perkin Elmer TriCarb Counter). When starting from a calcium-deprived state (Fig. 4C,D), EGTA was added only one minute before starting phosphorylation to limit irreversible inactivation of the solubilized ATPase, although the presence of glycerol helps in protecting the enzyme from irreversible inactivation. For dephosphorylation kinetics, 1 mM “cold” Mg.ATP was added after a 30 s period of phosphorylation. For Ca^2+-dependency, we adjust the concentration of free calcium according to the Ca.EGTA constant as mentioned above, before triggering phosphorylation. […] Phosphorylations were done at 0 °C especially for inhibition by vanadate to prevent dissociation of vanadate and limit irreversible inactivation in absence of calcium.
# [2] = system: SERCA1a; conditions: cross-linking experiments; cited from earlier work
# Source text: An analysis of all the published data on biochemical characterization of PLB or SLN highlights heterogeneity in the results.
# [3] = target: T1, recombinant SERCA1a (recS1a); experiment: Steady-state ATPase activity, enzyme-coupled assay; format: biochemical, rabbit (expressed in S. cerevisiae)
# Method: resuspended in a large volume of pure water and lyophilized to evaporate most of the TFA. The rinsed powder was then suspended in presence of 10 mM HCl to exchange the anionic residual TFA that may interact with the positive charges of the peptide for chloride. This suspension was lyophilized again.
# Three additional cycles of – dissolving in pure water / lyophilisation – will allow to eliminate traces of TFA and to get back to a pH compatible with functional tests. For final solubilisation of SLN in detergent, powder was then dissolved in 50% TFE and an amount of detergent to reach a 100:1 mole:mole detergent:SLN ratio. Here, we used C12E8 as it is fully compatible with functional characterization of SERCA1a 23. This suspension was then lyophilized again to evaporate TFE.
# Sarcolipins (Palm-SLN or SLN) were finally resuspended at 0.8 mg/mL (about 200 µM) in a 10 mM potassium phosphate buffer pH 7.4, in the presence of 2.5 mg/mL C12E8.
# Expression and Purification of recombinant SERCA1a (recS1a)
# The yeast expression plasmid pYeDP60-SERCA1a-BAD (WT) and expression in Saccharomyces cerevisiae was described previously 30. Yeast membranes were solubilized by DDM for subsequent purification of recombinant Ca2+-ATPase by Streptavidin affinity chromatography 31. Purified recombinant SERCA1a was recovered in a buffer containing 50 mM MOPS-Tris pH7, 100 mM KCl, 5 mM MgCl2, 2.1 mM CaCl2, 40 % glycerol (v/v) and 0.5 mg/mL DDM, together with some thrombin remaining from the elution procedure. The protein concentration in the purified fraction was in the 0.05 to 0.15 mg/mL range depending on the batch. […]
# Steady-state ATPase activity measurements
# Measurements were performed using classical enzyme coupled assay. We measured the rate of NADH oxidation in the presence of 0.1 mg/mL lactate deshydrogenase, 0.05 mg/mL pyruvate kinase, 1 mM phosphoenolpyruvate, 0.25 mM NADH (protocol was adapted from 22) and in the additional presence of 2 mg/mL C12E8 to limit time-dependent inactivation of the purified SERCA1a 20,23.
# [4] = target: T1, recombinant SERCA1a (recS1a); experiment: Calcium dependence of phosphoenzyme level; format: biochemical, rabbit (expressed in S. cerevisiae)
# Method: as §1
# [5] = target: T1, recombinant SERCA1a (recS1a); experiment: Mg.ATP binding by tryptophan fluorescence; design: species or system rabbit (expressed in S. cerevisiae)
# Method: Intrinsic fluorescence of SERCA1a was measured with a SPEX Fluorolog spectrofluorometer (Horiba/Jobin–Yvon, Longjumeau, France) as described before. Briefly, signals were monitored with excitation and emission wavelength set at 295 and 320 nm, with bandwidths of 2 and 10 nm, respectively. Changes in tryptophan fluorescence were recorded at 20 °C after dilution of protein samples to a final concentration of about 6–7.5 µg/mL into a medium containing 50 mM MOPS-Tris pH 7, 100 mM KCl, 5 mM MgCl2, 20% glycerol (v/v) and 10 mg/mL DDM. In presence of SLN, recS1a and SLN were first mixed together and incubate for 1 h on ice before measurement. In absence of SLN, recS1a is supplemented with 0.07 mg/mL C12E8 to compensate the detergent present with SLN. The Maxchelator program was used for estimating [Ca^2+]free[59] (program available at https://somapp.ucdmc.ucdavis.edu/pharmacology/bers/maxchelator/downloads.htm). The dissociation constant of the Ca.EGTA complex was taken to be 0.4 µM at pH7 and was assumed to be the same in the presence of glycerol.
# [6] = target: T1, recombinant SERCA1a (recS1a); experiment: Vanadate inhibition of phosphoenzyme formation, recS1a; format: biochemical, rabbit (expressed in S. cerevisiae); conditions: for K1/2 (K0.5) for vanadate inhibition, recS1a + pSLN: DDM-solubilized, preincubation with orthovanadate without calcium, phosphorylation 30 s at 0 °C, three independent experiments, p < 0.0001 vs recS1a alone
# Method: as §1
Substance,"EPmax (stoichiometry series), recS1a [1] [nmoles EP/mg ATPase]","maximum decrease of the EP level, recS1a (discussion) [1]","SLN:SERCA1a ratio for half-inhibition, recS1a (Fig. 4H) [1]","amplitude of the inhibition of phosphoenzyme level, recS1a [1] [%]",cross-linking interaction with SERCA1a [2],"maximal turnover ([3]; recS1a + Palm-SLN, recS1a alone 2.88 +/- 0.12)","affinity for calcium and maximum turn-over ([3]; recS1a in absence or presence of pSLN, enzyme-coupled assay)","Ca1/2 (ATPase activity), recS1a + pSLN ([3]; steady state, NADH-coupled assay, 2 mg/mL C12E8, three independent experiments, p=0.248)","nH for calcium (phosphoenzyme level), recS1a + pSLN ([4]; five independent experiments)","Ca1/2 (phosphoenzyme level), recS1a + pSLN ([4]; phosphorylation 15 s, varying calcium, five independent experiments, 36 data points per fit, p = 0.29)","EPmax (calcium dependence) ([4]; recS1a + pSLN, Fig. 4E, recS1a alone 3.13 ± 0.11) [nmoles EP/mg ATPase]","fluorescence change on 0.3 µM Mg.ATP, recS1a + pSLN ([5]; 0.3 µM Mg.ATP, increase of fluorescence in absence of pSLN)","fluorescence change on 300 µM Mg.ATP, recS1a + pSLN ([5]; 300 µM Mg.ATP, decrease of fluorescence in absence of pSLN)","Mg-ATP1/2 (affinity for Mg.ATP), recS1a + pSLN ([5]; calcium-deprived (2 mM EGTA), pH 7, 20 °C, DDM, 20% glycerol, three independent experiments, p = 0.045)","nH for Mg.ATP, recS1a + pSLN ([5]; three independent experiments)","K1/2 (K0.5) for vanadate inhibition, recS1a + pSLN [6] [µM]","K1/2 (K0.5) for vanadate inhibition, recS1a + pSLN ([6]; listed as Palm-SLN)","EPmax (vanadate series) ([6]; recS1a + pSLN, recS1a alone 2.01 ± 0.05)"
"SLN: chemically synthesized non-palmitoylated rabbit sarcolipin; in cited literature results sarcolipin in general (MERSTRELCLNFTVVLITVILIWLLVRSYQY; UniProt P42532 1-31, looked up)",2.38 ± 0.05,about 30%,4.7 ± 0.2 mol SLN added per mole of SERCA1a,28.6 ± 0.5,interaction of SLN with SERCA1a at all the major steps of the catalytic cycle,,,,,,,,,,,,,
"pSLN: chemically synthesized S-palmitoylated rabbit sarcolipin, 31-residue single-spanning membrane peptide, palmitoylated on Cys9 (MERSTRELC(Palmitoyl)LNFTVVLITVILIWLLVRSYQY; UniProt P42532 1-31, looked up)",2.37 ± 0.05,about 30%,5.1 ± 0.3 mol SLN added per mole of SERCA1a,31.2 ± 0.8,,2.74 +/- 0.04 µmol ATP/mg/min,no difference was observed,0.13 +/- 0.06 µM,0.74 ± 0.03,0.58 ± 0.05 µM and 0.58 µM,3.19 ± 0.11,no fluorescence intensity variation,increase of signal,11 µM and 11.0 ± 1 µM,0.95 ± 0.06,0.22 ± 0.01,0.22+/-0.01 µM,2.07 ± 0.21 nmoles/mg of ATPase
